This series is described as follows: protein stability index of a GFP-peptide fusion (yeast GPS) (PSI 1-4); higher = more stable; sorted into four equal gates, so the index is relative within each strain. An outline of the steps: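 Plasmids in a pooled yeast library fused tiled 17-residue yeast protein peptides downstream of GFP and also expressed Cherry. Mid-log cultures grown without leucine were sorted into four equal gates by GFP/Cherry fluorescence ratio. Each gate's plasmids were PCR-amplified and Illumina-sequenced, and reads were matched to strains by barcodes. The protein stability index is derived by multiplying each gate's read frequency by its gate number and summing the results.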

± gives the uncertainty stated by the source.

With GFGLVYNSVAEAKKFEP [RPS24A], the protein stability index runs as follows: (doa10∆) 3.22 ± 0.1; (pdr5∆) 3.47 ± 0.13; (san1∆) 2.87 ± 0.1; (ubr1∆) 2.8 ± 0.14.
In the case of QEIFDANVQRLKEYQSK [RPL13A], the protein stability index was 3.06 ± 0.097 (doa10∆), 3.4 ± 0.15 (pdr5∆), 2.93 ± 0.15 (san1∆) and 3.27 ± 0.093 (ubr1∆).
For the sequence CLSPGAFLSKVPEFFQT [SRP14], the protein stability index reads like this: (doa10∆) 2.73 ± 0.098; (pdr5∆) 2.44 ± 0.13; (san1∆) 2.87 ± 0.17; (ubr1∆) 2.6 ± 0.068.
Consider LMSCISVGTDPMPIITF [RPB2], for which the protein stability index (doa10∆) turned out to be 2.26 ± 0.086, the protein stability index (pdr5∆) stood at 1.71 ± 0.056, the protein stability index (san1∆) worked out at 2.28 ± 0.05 and the protein stability index (ubr1∆) turned out to be 2.18 ± 0.054.
The like results for GMNNASAGLFGSKPAGG [YGL172W/NUP49] were, in that order, 3.23 ± 0.086, 3.32 ± 0.086, 2.96 ± 0.09 and 3.23 ± 0.053.
In the case of PFFSSNTSSLQSFQNPF [YIL149C/MLP2], the protein stability index worked out at 2.93 ± 0.058 (doa10∆), 2.25 ± 0.055 (pdr5∆), 2.69 ± 0.05 (san1∆) and 2.81 ± 0.033 (ubr1∆).
For the sequence MGIVQDTLCGIRKLTLR [RPO21], the protein stability index by setting is: (doa10∆) 2.89 ± 0.068; (pdr5∆) 1.74 ± 0.053; (san1∆) 1.87 ± 0.068; (ubr1∆) 1.64 ± 0.053.
With IAGFDLIGCIDEAKDFI [PUP3], the protein stability index (doa10∆) was determined as 3.17 ± 0.11, the protein stability index (pdr5∆) was found to be 3.33 ± 0.13, the protein stability index (san1∆) was 3.08 ± 0.073 and the protein stability index (ubr1∆) stood at 3.21 ± 0.055.
As to HPNRVLEHLHSTAFQNT [COR1], the protein stability index by setting is: (doa10∆) 2.79 ± 0.041; (pdr5∆) 2.92 ± 0.047; (san1∆) 2.4 ± 0.051; (ubr1∆) 2.92 ± 0.045.
In the case of LHKEQWQSGLKMYDYEE [RPN11], the protein stability index reads like this: (doa10∆) 2.47 ± 0.081; (pdr5∆) 2.8 ± 0.081; (san1∆) 2.28 ± 0.096; (ubr1∆) 2.39 ± 0.053.
Regarding EGTSISVHLIECYKQLF [YCS4], the protein stability index (doa10∆) is 3.46 ± 0.14, the protein stability index (pdr5∆) worked out at 3.39 ± 0.12, the protein stability index (san1∆) was 3.42 ± 0.14 and the protein stability index (ubr1∆) was determined as 3.3 ± 0.063.
In the case of VNSIALFVGTDRQLHEI [RPN14], the protein stability index (doa10∆) came to 2.43 ± 0.079, the protein stability index (pdr5∆) stood at 2.46 ± 0.065, the protein stability index (san1∆) was 2.25 ± 0.067 and the protein stability index (ubr1∆) turned out to be 2.67 ± 0.074.
As for LLYELTAFKATVFFLIR [YJL039C/NUP192], the protein stability index runs as follows: (doa10∆) 2.32 ± 0.071; (pdr5∆) 2.36 ± 0.09; (san1∆) 1.82 ± 0.077; (ubr1∆) 2.43 ± 0.063.
With IVGKSNVLVTMPVAPTM [YMR129W/POM152], the protein stability index (doa10∆) came to 2.66 ± 0.12, the protein stability index (pdr5∆) worked out at 2.56 ± 0.08, the protein stability index (san1∆) amounted to 2.07 ± 0.17 and the protein stability index (ubr1∆) is 2.65 ± 0.055.
As for TNEEVRNMAEEFEYDDE [CYT1], the protein stability index by setting is: (doa10∆) 2.92 ± 0.14; (pdr5∆) 2.3 ± 0.077; (san1∆) 2.49 ± 0.098; (ubr1∆) 2.2 ± 0.041.
For the sequence MARYGATSTNPAKSASA [RPL17A], the protein stability index reads like this: (doa10∆) 2.59 ± 0.056; (pdr5∆) 2.91 ± 0.064; (san1∆) 2.31 ± 0.09; (ubr1∆) 2.9 ± 0.048.
For TKPNVLNDPSLKIQFIL [SIN4], the protein stability index stood at 2.03 ± 0.043 (doa10∆), 2.36 ± 0.055 (pdr5∆), 2.57 ± 0.049 (san1∆) and 2.538 ± 0.025 (ubr1∆).
For the sequence AQSHQRFNAKVSMVKRA [CDC53], the protein stability index worked out at 1.34 ± 0.045 (doa10∆), 2.09 ± 0.061 (pdr5∆), 1.56 ± 0.16 (san1∆) and 1.64 ± 0.031 (ubr1∆).
For DTLDSKSNGSSDDDNIG [ISW2], the protein stability index is, setting by setting: (doa10∆) 3.26 ± 0.09; (pdr5∆) 3.23 ± 0.074; (san1∆) 3.11 ± 0.057; (ubr1∆) 3.03 ± 0.067.
In the case of PALVGKLRGDLREAPAD [SNF6], the protein stability index is, setting by setting: (doa10∆) 3.19 ± 0.21; (pdr5∆) 3.12 ± 0.19; (san1∆) 2.24 ± 0.19; (ubr1∆) 2.5 ± 0.17.
Take PSPYKTTVYRYSAAKKI [YAR002W/NUP60]: the protein stability index reads like this: (doa10∆) 1.69 ± 0.051; (pdr5∆) 1.98 ± 0.05; (san1∆) 1.49 ± 0.069; (ubr1∆) 1.67 ± 0.042.
Regarding NWAKFTATASLGVIHKG [RPN2], the protein stability index worked out at 1.81 ± 0.06 (doa10∆), 1.81 ± 0.053 (pdr5∆), 1.91 ± 0.069 (san1∆) and 2 ± 0.061 (ubr1∆).
Turning to DRIIHTWRTQLAASEIG [ECM29], the protein stability index reads like this: (doa10∆) 1.65 ± 0.056; (pdr5∆) 1.84 ± 0.06; (san1∆) 1.65 ± 0.062; (ubr1∆) 1.83 ± 0.035.
Sequence MTTQQEEQRSDTKNSKS [ISW2] showed a protein stability index (doa10∆) of 3.26 ± 0.17, a protein stability index (pdr5∆) of 3.08 ± 0.18, a protein stability index (san1∆) of 2.73 ± 0.26 and a protein stability index (ubr1∆) of 3.2 ± 0.19.

The values are drawn from the supplement of paper PMC9732359.
